Experimental data from publication doi:10.64898/2025.12.23.696137 (bioRxiv, 2025).

Molecular target: the molecule itself
Assay: co-IP

B1: METTL9-FLAG wild type (mouse) (enzyme)
chain: RRMWTLRSPLSRSLYVNMTSGPGGPAAAAGGGKDTHQWYVCNREKLCESLQSVFVQSYLDQGTQIFLNNSIEKSGWLFIQLYHSFVSSVFSLFMSRTSINGLLGRGSMFVFSPDQFQRLLRINPDWKTHRLLDLGAGDGEVTKIMSPHFEEIYATELSETMIWQLQKKKYRVLGINEWQNTGFQYDVISCLNLLDRCDQPLTLLKDIRSVLEPTQGRVILALVLPFHPYVENVGGKWEKPSEILEIKGQNWEEQVNSLPEVFRKAGFVVEAFTRLPYLCEGDMYNDYYVLDDAVFVLRPV
modifications: N-linked glycans at Asn-35 and Asn-86
stoichiometry N: 2
